The values below come from patent US20170343556A1 (VENTANA MEDICAL SYSTEMS, published 2017).

For this test, the target named is T1, human PD-L1 (Programmed death ligand-1) (human, UniProt Q9NZQ7 19-290).
T1 construct: whole, on cells; Endogenous PD-L1 in fixed tissue sections, detected by immunohistochemistry; No recombinant construct was used; also called B7-H1; PDCD1L1
Description: immunohistochemistry on FFPE tissue sections, OptiView DAB detection. The protocol:
VENTANA PD-L1 (SP263) is a rabbit monoclonal primary antibody which binds to PD-L1 in paraffin-embedded tissue sections. The specific antibody can be localized using a haptenated secondary antibody followed by a multimer anti-hapten-HRP conjugate (OptiView DAB IHC Detection Kit, Cat. No. 760-700). The specific antibody-enzyme complex is then visualized with a precipitating enzyme reaction product. Each step is incubated for a precise time and temperature. At the end of each incubation step, the VENTANA BENCHMARK automated slide stainer washes the sections to stop the reaction and to remove unbound material that would hinder the desired reaction in subsequent steps. It also applies LCS (Cat. No. 650-210/Cat. No. 650-010), which minimizes evaporation of the aqueous reagents from the specimen slide. In addition to staining with VENTANA PD-L1 (SP263), a second slide is stained with a rabbit monoclonal negative control Ig (Cat. No. 790-4795) to assess background staining. [0113] IB. Specimen Preparation

T1 sequence (Q9NZQ7 19-290): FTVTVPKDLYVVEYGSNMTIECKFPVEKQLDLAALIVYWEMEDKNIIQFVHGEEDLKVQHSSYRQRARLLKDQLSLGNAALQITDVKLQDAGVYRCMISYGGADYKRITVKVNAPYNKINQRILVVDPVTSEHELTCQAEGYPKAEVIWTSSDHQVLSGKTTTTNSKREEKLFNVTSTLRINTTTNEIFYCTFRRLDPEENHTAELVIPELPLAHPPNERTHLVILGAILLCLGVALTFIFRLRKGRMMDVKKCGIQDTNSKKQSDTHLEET

B1: VENTANA PD-L1 (SP263) Rabbit Monoclonal Antibody (antibody, V domains shown)
VH: QSLEESGGRLVTPGTPLTLTCTASGFSLSNHAISWVRQAPGKGLEWIGTINSDTHTYYATWPKGRFTISKTSSTTVDLKMTSPTTEDTATYFCARRIFSSSNIWGPGTLVTVSS
VL: AIVMTQTSSPVSAVVGGTVAINCQASQSIYNNNWLSWFQQKPGQPPKLLIYLASTLASGVPSRFKGSGSGTQFTLTISDVVCDDAATYYCIGGESSNNDGIAFGGGTEVVVK
notes: Rabbit monoclonal primary antibody with a kappa light chain; also called SP263 antibody; anti-PD-L1
Regarding B1, the binding result was “binds”.
